According to the RNAGym collection of RNA variant scans (doi:10.7554/elife.80360):

B1: Twister Ribozyme (parent)
chain: AACACUGCCAAUGCCGGUCCCAAGCCCGGAUAAAAGUGGAGGGGGCGG

Variants of: B1
Assay: self-cleavage, relative activity (ratio to wild type); higher = more cleavage; co-transcriptional

Variant | self-cleavage
G38A C46A | 0.875
G38A C46G | 0.966
G38A G41C | 0.157
G38A G41U | 0.315
G38A G42A | 0.176
G38A G42C | 0.247
G38A G43A | 0.19
G38A G43C | 0.148
G38A G44A | 0.897
G38A G44U | 0.846
G38A G45A | 0.797
G38A G47C | 0.522
G38A G47U | 0.814
G38A G48U | 1.1
G38C | 0.951
G38C A40C | 0.134
G38C A40G | 0.134
G38C C46U | 0.855
G38C G39A | 0.243
G38C G41A | 0.295
G38C G41C | 0.181
G38C G41U | 0.304
G38C G42C | 0.238
G38C G42U | 0.183

Variant | self-cleavage
G38C G43A | 0.149
G38C G43C | 0.137
G38C G43U | 0.242
G38C G45C | 0.473
G38C G45U | 0.719
G38C G47A | 0.737
G38C G47C | 0.388
G38C G47U | 0.76
G38C G48A | 0.974
G38C G48C | 0.977
G38U | 0.923
G38U A40C | 0.127
G38U A40G | 0.101
G38U A40U | 0.116
G38U C46G | 0.818
G38U C46U | 0.864
G38U G39A | 0.185
G38U G39C | 0.14
G38U G41A | 0.162
G38U G41C | 0.149
G38U G41U | 0.196
G38U G42A | 0.129
G38U G42C | 0.177
G38U G42U | 0.12

Variant | self-cleavage
G38U G43A | 0.154
G38U G43C | 0.126
G38U G43U | 0.156
G38U G44A | 0.811
G38U G44C | 0.829
G38U G47A | 0.564
G38U G48A | 0.854
G38U G48U | 1.05
G39A A40C | 0.139
G39A A40G | 0.145
G39A A40U | 0.161
G39A C46A | 0.463
G39A C46U | 0.445
G39A G41A | 0.153
G39A G41U | 0.125
G39A G42C | 0.12
G39A G43A | 0.152
G39A G43C | 0.134
G39A G44C | 0.231
G39A G44U | 0.322
G39A G45A | 0.418
G39A G47A | 0.363
G39A G48A | 0.388
G39A G48U | 0.517

Variant | self-cleavage
G39C A40C | 0.114
G39C A40G | 0.164
G39C A40U | 0.165
G39C C46U | 0.14
G39C G41A | 0.0895
G39C G41C | 0.112
G39C G43A | 0.103
G39C G44A | 0.137
G39C G44C | 0.167
G39C G45A | 0.12
G39C G45C | 0.105
G39C G45U | 0.158
G39C G47A | 0.152
G39C G48A | 0.138
G39U G41A | 0.0926
G39U G41C | 0.121
G39U G41U | 0.149
G39U G42A | 0.104
G39U G42U | 0.149
G39U G43U | 0.143
G39U G44U | 0.164
G39U G45C | 0.183
G39U G47A | 0.14
G39U G47C | 0.16

Variant | self-cleavage
G39U G48U | 0.196
A40C | 0.262
A40C C46G | 0.218
A40C C46U | 0.236
A40C G41A | 0.115
A40C G41U | 0.157
A40C G42C | 0.164
A40C G43C | 0.157
A40C G44A | 0.298
A40C G44U | 0.296
A40C G47A | 0.19
A40C G47C | 0.193
A40C G48C | 0.343
A40G | 0.153
A40G C46A | 0.164
A40G C46U | 0.155
A40G G41A | 0.141
A40G G41C | 0.133
A40G G42U | 0.172
A40G G43A | 0.147
A40G G44C | 0.195
A40G G44U | 0.156
A40G G45C | 0.148
A40G G45U | 0.147

Variant | self-cleavage
A40G G47U | 0.143
A40G G48A | 0.193
A40G G48C | 0.14
A40U | 0.158
A40U C46A | 0.146
A40U G41A | 0.142
A40U G42U | 0.15
A40U G43A | 0.132
A40U G43C | 0.114
A40U G44A | 0.155
A40U G44C | 0.178
A40U G47C | 0.142
A40U G47U | 0.12
G41A G43A | 0.171
G41A G45A | 0.588
G41A G45C | 0.151
G41A G45U | 0.196
G41A G47A | 0.278
G41A G47C | 0.2
G41A G48A | 0.332
G41A G48C | 0.535
G41C C46U | 0.282
G41C G43A | 0.141
G41C G43C | 0.148

Variant | self-cleavage
G41C G43U | 0.153
G41C G44A | 0.211
G41C G44C | 0.187
G41C G45A | 0.334
G41C G45C | 0.253
G41C G47A | 0.235
G41C G47C | 0.162
G41C G48A | 0.234
G41C G48C | 0.332
G41C G48U | 0.288
G41U C46A | 0.512
G41U G42C | 0.164
G41U G42U | 0.125
G41U G43A | 0.163
G41U G43C | 0.135
G41U G44A | 0.403
G41U G44U | 0.193
G41U G45A | 0.596
G41U G45C | 0.177
G41U G47C | 0.209
G41U G47U | 0.3
G41U G48A | 0.401
G42A C46G | 0.232
G42A G43A | 0.131

Variant | self-cleavage
G42A G43U | 0.134
G42A G45A | 0.422
G42A G47A | 0.282
G42A G48C | 0.624
G42C C46G | 0.465
G42C C46U | 0.463
G42C G43A | 0.139
G42C G44U | 0.162
G42C G45U | 0.164
G42C G48A | 0.516
G42C G48C | 0.606
G42U C46A | 0.162
G42U G43A | 0.129
G42U G44A | 0.524
G42U G47A | 0.242
G42U G48C | 0.571
G43A C46A | 0.334
G43A G45C | 0.434
G43A G47A | 0.237
G43A G47C | 0.208
G43C C46U | 0.214
G43C G44U | 0.455
G43C G45A | 0.294
G43C G47A | 0.138

Variant | self-cleavage
G43C G47C | 0.159
G43C G47U | 0.13
G43C G48A | 0.198
G43C G48C | 0.219
G43U G45C | 0.271
G44A C46A | 0.878
G44A C46G | 0.895
G44A C46U | 0.988
G44A G45U | 1.11
G44A G47A | 0.867
G44A G48C | 1.11
G44A G48U | 1.08
G44C C46U | 0.732
G44C G45C | 0.54
G44C G45U | 0.483
G44C G47A | 0.371
G44C G47C | 0.353
G44C G48A | 0.289
G44U G45C | 0.609
G44U G47A | 0.758
G44U G47C | 0.523
G44U G48A | 0.717
G45A G47A | 0.71
G45A G48C | 1.02

Variant | self-cleavage
G45C C46U | 0.544
G45C G47C | 0.427
G45C G47U | 0.177
G45C G48A | 0.628
G45C G48C | 0.89
G45C G48U | 0.577
G45U C46G | 0.52
G45U C46U | 0.669
G45U G47A | 0.771
C46A G47A | 1.03
C46A G47C | 0.952
C46A G47U | 0.832
C46A G48C | 0.995
C46G G47C | 0.981
C46G G48A | 1
C46G G48C | 1.55
C46G G48U | 1.52
C46U G47U | 1.02
C46U G48C | 1.1
G47A G48U | 1.47
G47C G48C | 0.799
G47C G48U | 0.4
G47U G48C | 1.36
